Laboratory results as given in patent US20220177587A1, “METHODS AND USES OF VARIANT CD80 FUSION PROTEINS AND RELATED CONSTRUCTS” (Alpine Immune Sciences, Inc., priority 2018, published 2022).
Each block holds one substance with its values, some of them ahead of it.

Assays:
[1] = molecular target: CD28 (human) (UniProt P10747); assay: flow cytometry, Jurkat/IL2 reporter cells (CD28)
[2] = molecular target: PD-L1 (human) (UniProt Q9NZQ7); assay: flow cytometry, CHO cells expressing huPD-L1
[3] = molecular target: PD-L1 (human) (UniProt Q9NZQ7); assay: flow cytometry, CHO cells expressing huPD-L1; remark: listed apart in the source
[4] = molecular target: CD28 (human) (UniProt P10747); assay: flow cytometry, Jurkat/IL2 reporter cells (endogenous CD28)
[5] = molecular target: CD28 (human) (UniProt P10747)
[6] = molecular target: CD28 (human) (UniProt P10747); assay: flow cytometry, HEK293 cells transfected with full-length human CD28, PE anti-human Fc
[7] = molecular target: CD28 (human) (UniProt P10747); remark: listed apart in the source
[8] = molecular target: human CTLA-4 (human) (UniProt P16410); assay: flow cytometry, CHO/CTLA4 cells; MFI over CD80 WT IgV-Fc
[9] = molecular target: human CTLA-4 (human) (UniProt P16410); assay: flow cytometry, CHO cells stably expressing CTLA4
[10] = molecular target: CD28 (human) (UniProt P10747); assay: flow cytometry, Jurkat cells (CD28); MFI over CD80 WT IgV-Fc
[11] = molecular target: PD-L1 (human) (UniProt Q9NZQ7); assay: flow cytometry, CHO/PD-L1 cells; MFI over CD80 WT IgV-Fc
Target sequence in this assay (Q9NZQ7 19-290): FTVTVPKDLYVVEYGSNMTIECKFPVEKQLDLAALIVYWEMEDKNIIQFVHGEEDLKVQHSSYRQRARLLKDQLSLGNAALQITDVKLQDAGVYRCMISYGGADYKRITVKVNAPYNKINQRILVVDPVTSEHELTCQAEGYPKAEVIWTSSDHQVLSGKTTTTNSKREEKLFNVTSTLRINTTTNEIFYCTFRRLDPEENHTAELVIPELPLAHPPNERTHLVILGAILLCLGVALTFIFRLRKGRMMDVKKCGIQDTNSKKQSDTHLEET

[12] = molecular target: CD28 (human) (UniProt P10747); assay: flow cytometry, Jurkat cells (CD28)
[13] = molecular target: PD-L1 (human) (UniProt Q9NZQ7); assay: flow cytometry, CHO cells stably expressing PD-L1
Target sequence in this assay (Q9NZQ7 19-290): as above

[14] = molecular target: CD28 (human) (UniProt P10747); assay: flow cytometry, Jurkat cells (CD28); remark: listed apart in the source
[15] = molecular target: human CTLA-4 (human) (UniProt P16410); assay: flow cytometry, CHO cells stably expressing CTLA4; remark: listed apart in the source
[16] = molecular target: human CTLA-4 (human) (UniProt P16410); assay: flow cytometry, CHO cells expressing huCTLA4
[17] = molecular target: CD28 (human) (UniProt P10747); assay: flow cytometry, Jurkat/IL2 reporter cells (CD28); remark: listed apart in the source
[18] = molecular target: PD-L1 (human) (UniProt Q9NZQ7); assay: flow cytometry, CHO cells expressing huPD-L1; remark: listed apart in the source
Target sequence in this assay (Q9NZQ7 19-290): as above

[19] = molecular target: human CTLA-4 (human) (UniProt P16410); assay: flow cytometry, CHO cells expressing huCTLA-4
[20] = molecular target: human CTLA-4 (human) (UniProt P16410); assay: flow cytometry, CHO/huCTLA-4 cells; vs WT CD80 ECD-Fc (Abcam)
[21] = molecular target: PD-L1 (human) (UniProt Q9NZQ7); assay: flow cytometry, CHO/huPD-L1 cells; vs WT CD80 ECD-Fc (Abcam)
Target sequence in this assay (Q9NZQ7 19-290): as above

[22] = molecular target: PD-L1 (human) (UniProt Q9NZQ7); assay: flow cytometry, HEK293 cells transfected with full-length human PD-L1, PE anti-human Fc
Target sequence in this assay (Q9NZQ7 19-290): as above

Sequence of human CTLA-4 (human) (P16410 36-223): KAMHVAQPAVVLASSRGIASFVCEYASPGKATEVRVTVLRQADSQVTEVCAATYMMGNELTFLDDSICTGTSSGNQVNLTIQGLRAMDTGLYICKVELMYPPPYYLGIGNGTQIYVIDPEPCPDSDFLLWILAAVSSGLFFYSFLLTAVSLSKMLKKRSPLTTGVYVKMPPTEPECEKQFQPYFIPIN
Sequence of WT CD80 ECD-Fc (inert) (Fc fusion) (chain): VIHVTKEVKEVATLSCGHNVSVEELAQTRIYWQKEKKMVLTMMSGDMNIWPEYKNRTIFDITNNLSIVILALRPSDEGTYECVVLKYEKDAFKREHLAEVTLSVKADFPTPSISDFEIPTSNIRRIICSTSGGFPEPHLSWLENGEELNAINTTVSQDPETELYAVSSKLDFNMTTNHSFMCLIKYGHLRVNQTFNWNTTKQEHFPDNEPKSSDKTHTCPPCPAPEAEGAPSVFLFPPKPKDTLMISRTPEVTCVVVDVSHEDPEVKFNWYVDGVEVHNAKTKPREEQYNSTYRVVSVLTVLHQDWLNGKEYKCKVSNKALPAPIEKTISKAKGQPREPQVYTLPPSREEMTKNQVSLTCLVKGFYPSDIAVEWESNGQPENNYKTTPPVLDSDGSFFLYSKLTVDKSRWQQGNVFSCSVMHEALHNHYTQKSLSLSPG

Substance: WT CD80 ECD-Fc (inert) (Fc fusion)
MFI at 66.6 nM [6]: 3070 MFI | Jurkat/IL2 reporter RLU at 50 nM, CHO/OKT3 aAPC without PD-L1 [7]: 420 RLU

Substance: variant CD80 IgV-Fc (inert) H18A/A26P/E35D/M47L/V68M/A71G/D90G (Fc fusion)
Fold change to WT CD80 [8]: 17.2 fold | MFI at 33.3 nM [9]: 23800 MFI | Fold change to WT CD80 [10]: 46.4 fold | Fold change to WT CD80 [11]: 203 fold | MFI at 33.3 nM [12]: 4730 MFI | MFI at 33.3 nM [13]: 33400 MFI

Substance: variant CD80 IgV-Fc A26E/E35D/M47L/A71G (Fc fusion)
MFI at 33.3 nM [14]: 236 MFI | MFI at 33.3 nM [1]: 2160 MFI | MFI at 33.3 nM [15]: 20600 MFI | MFI at 33.3 nM [3]: 53400 MFI | MFI at 33.3 nM [16]: 341000 MFI

Substance: variant CD80 IgV-Fc E35D/A71D (SEQ ID NO 176) (Fc fusion)
Fold increase in IL2 reporter signal (Jurkat/IL2 reporter assay) (fold vs WT CD80 IgV-Fc) [5]: 0.36

Substance: variant CD80 IgV-Fc E35D/A71D (SEQ ID NO 194) (Fc fusion)
Fold increase in IL2 reporter signal (Jurkat/IL2 reporter assay) (fold vs WT CD80 IgV-Fc) [5]: 0.2

Substance: variant CD80 IgV-Fc E35D/M47I/Y87Q/K89E (Fc fusion)
MFI at 33.3 nM [1]: 15500 MFI | MFI at 33.3 nM [3]: 29800 MFI

Substance: variant CD80 IgV-Fc E35D/M47V/N48K/K89N (Fc fusion)
MFI at 33.3 nM [17]: 701 MFI | MFI at 33.3 nM [18]: 6670 MFI | MFI at 33.3 nM [19]: 43800 MFI | Fold change to WT CD80 [20]: 1.1 fold | Fold change to WT CD80 [21]: 52.1 fold

Substance: variant CD80 IgV-Fc Q27H/E35D/D46V/M47L/A71G (Fc fusion)
MFI at 33.3 nM [1]: 10400 MFI

Substance: variant CD80 IgV-Fc Q33L/E35D/M43I/Y53F/T62S/L85Q (Fc fusion)
MFI at 33.3 nM [1]: 1024 MFI | MFI at 33.3 nM [3]: 72100 MFI

Other lines, results leading:

MFI at 33.3 nM [1]: 18000 MFI | MFI at 33.3 nM [2]: 7940 MFI | MFI at 33.3 nM [3]: 11900 MFI | MFI at 33.3 nM [4]: 7630 MFI
Substance: WT CD80 ECD-Fc (R&D) (Fc fusion)

Fold increase in IL2 reporter signal (Jurkat/IL2 reporter assay) (fold vs WT CD80 IgV-Fc) [5]: 0.93
Substance: WT CD80 ECD-Fc (control of Table E5) (Fc fusion)

Fold change to WT CD80 [8]: 15.4 fold | MFI at 33.3 nM [9]: 21400 MFI | Fold change to WT CD80 [10]: 48.2 fold | Fold change to WT CD80 [11]: 220 fold | MFI at 33.3 nM [12]: 4910 MFI | MFI at 33.3 nM [13]: 36300 MFI
Substance: variant CD80 IgV-Fc (inert) H18A/A26N/E35D/M47L/V68M/A71G/D90G (Fc fusion)

Fold change to WT CD80 [8]: 18 fold | MFI at 33.3 nM [9]: 24900 MFI | Fold change to WT CD80 [10]: 79 fold | Fold change to WT CD80 [11]: 448 fold | MFI at 33.3 nM [12]: 8060 MFI | MFI at 33.3 nM [13]: 73900 MFI
Substance: variant CD80 IgV-Fc (inert) H18V/A26S/E35D/M47L/V68M/A71G/D90G (Fc fusion)

MFI at 33.3 nM [17]: 567 MFI | MFI at 33.3 nM [18]: 5980 MFI | MFI at 33.3 nM [19]: 40200 MFI | Fold change to WT CD80 [20]: 1 fold | Fold change to WT CD80 [21]: 46.7 fold
Substance: variant CD80 IgV-Fc D46V/M47L/L85Q (Fc fusion)

MFI at 33.3 nM [17]: 556 MFI | MFI at 33.3 nM [18]: 2270 MFI | MFI at 33.3 nM [19]: 5330 MFI | Fold change to WT CD80 [21]: 17.7 fold
Substance: variant CD80 IgV-Fc D46V/V68M (Fc fusion)

MFI at 22.2 nM [22]: 13800 MFI
Substance: variant CD80 IgV-Fc E35D/A71D (SEQ ID NO: 194) (Fc fusion)

MFI at 33.3 nM [1]: 11700 MFI | MFI at 33.3 nM [17]: 1350 MFI | MFI at 33.3 nM [18]: 14800 MFI | MFI at 33.3 nM [19]: 20900 MFI | MFI at 33.3 nM [3]: 89800 MFI | MFI at 33.3 nM [16]: 807 MFI
Substance: variant CD80 IgV-Fc E35D/M47V/N48K/V68M/K89N (Fc fusion)

Fold increase in IL2 reporter signal (Jurkat/IL2 reporter assay) (fold vs WT CD80 IgV-Fc) [5]: 0.43
Substance: variant CD80 IgV-Fc V22L/M38V/M47T/A71D/L85M (Fc fusion)
